Data reported in publication PMC6145688 (2018).

B1: SDC4-derived peptide VS52 (protein)
chain: VHPLVPLDNHIPERAGSGSQVPTEPKKLEENEVIPKRISPVEESEDVSNKVS

Target: Recombinant active autotaxin-β (ATXβ) (Homo sapiens (Human), UniProt Q13822)
Test: SPR

| binding result | Binder |
| --- | --- |
| no binding | RETEVIDPQDLLEGRYFSGALPDDED (protein) [SDC4-derived peptide RD26] |
| no binding | GALPDDEDVVGPGQESDDFEL (protein) [SDC4-derived peptide GL21] |
| no binding | B1 |
